Data set [1] has as its system SCL enhancer TALE-LSD1. As to the kind of experiment: cell_activity. The note with it: K562 ChIP-qPCR vs mCherry; H3K27ac reduced >4-fold. Background: Quantitative PCR measures a nucleic acid by following its amplification.
Data set [2] deals with SCL enhancer TALE-3X FLAG. The conditions noted are these: anti-FLAG ChIP-seq in K562, input 1; top ranked and only reproducible peak; exact SCL target not identified in text (candidates SEQ 9, 11, 37).
The subject of data set [3] is TALE-LSD1 #11 (ZFPM2 +16). As to the kind of experiment: cell_activity. The note with it: expression change not significant; histone modification levels at target reduced; +16 matched to #11 by coordinates.
In data set [4] the test system is TALE-LSD1 #25 (ZFPM2 +10). Description: cell_activity. The note with it: K562 RT-qPCR; +10 enhancer matched to #25 by coordinates; also reduces enhancer histone marks.
The test system of data set [5] is TALE-LSD1 #28 (ZFPM2 +45). Description: cell_activity. The note with it: expression change not significant; histone modification levels at target reduced; +45 matched to #28 by coordinates.

SCL enhancer 18 bp TALE target (18/18): the activity (fold reduction of H3K4me2) in data set [1] came to 3. In data set [2], the binding signal (tags per 1 kb bin) was 17.5. For the substance TALE #11 target chr8:106,347,824, the activity (% reduction of ZFPM2 expression) in data set [3] was determined as 13. In the case of TALE #25 target chr8:106,341,287, the activity (fold reduction of ZFPM2 expression) in data set [4] was found to be 2. The substance TALE #28 target chr8:106,376,850 came in with an activity (% reduction of ZFPM2 expression) in data set [5] of 22.
